Laboratory results taken from US20170283479.

Key:
[1] = biological target: insulin analogs where the A-chain is derived from the native insulin sequence
[2] = biological target: analogs where the A-chain is derived from the sequence of IGF-1

B1: rDNA rat insulin-specific degrading enzyme (IDE) (protein)
chain: MNNPAIQRIEDHIVKSPEDKREYRGLELANGIKVLLISDPTTDKSSAALDVHIGSLSDPPNIPGLSHFCEHMLFLGTKKYPKENEYSQFLSEHAGSSNAFTSGEHTNYYFDVSHEHLEGALDRFAQFFLCPLFDASCKDREVNAVDSEHEKNVMNDAWRLFQLEKATGNPKHPFSKFGTGNKYTLETRPNQEGIDVREELLKFHSTYYSSNLMAICVLGRESLDDLTNLVVKLFSEVENKNVPLPEFPEHPFQEEHLKQLYKIVPIKDIRNLYVTFPIPDLQQYYKSNPGHYLGHLIGHEGPGSLLSELKSKGWVNTLVGGQKEGARGFMFFIINVDLTEEGLLHVEDIILHMFQYIQKLRAEGPQEWVFQECKDLNAVAFRFKDKERPRGYTSKIAGKLHYYPLNGVLTAEYLLEEFRPDLIDMVLDKLRPENVRVAIVSKSFEGKTDRTEQWYGTQYKQEAIPEDVIQKWQNADLNGKFKLPTKNEFIPTNFEILALEKDATPYPALIKDTAMSKLWFKQDDKFFLPKACLNFEFFSPFAYVDPLHCNMAYLYLELLKDSLNEYAYAAELAGLSYDLQNTIYGMYLSVKGYNDKQPILLKKITEKMATFEIDKKRFEIIKEAYMRSLNNFRAEQPHQHAMYYLRLLMTEVAWTKDELKEALDDVTLPRLKAFIPQLLSRLHIEALLHGNITKQAALGVMQMVEDTLIEHAHTKPLLPSQLVRYREVQLPDRGWFVYQRRNEVHNNCGIEIYYQTDMQSTSENMFLELFCQIISEPCFNTLRTKEQLGYIVFSGPRRANGIQGLRFIIQSEKPPHYLESRVEAFLITMEKAIEDMTEEAFQKHIQALAIRRLDKPKKLSAECAKYWGEIISQQYNYDRDNIEVAYLKTLSKDDIIKFYKEMLAVDAPRRHKVSVHVLAREMDSCPVVGEFPSQNDINLSEAPPLPQPEVIHNMTEFKRGLPLFPLVKPHINFMAAKL
cleavage by IDE (HPLC and residual insulin receptor phosphorylation activity) [1]: extremely robust and easily detected | cleavage by IDE (HPLC and residual insulin receptor phosphorylation activity) [2]: appear to be extremely resistant to proteolysis
